B1: 01H10R3 His-tagged VHH (VHH)
VHH: QVQLVESGGGLVQAGGSLRLSCAASGRAFSQYTMGWFRQAPGKEREFVTAIRWSGGSIYKYYADSVKGRFTISGDNARNTVDLQMNSLKPEDTAVYYCAARMSPWGDPRGNEYDYWGQGTLVTVSS
B2: 01G03R3L His-tagged VHH (VHH)
VHH: QVQLVESGGGSVQAGGSLRLSCAASGRTFSNYAMGWFRQAPGKEREFVAGISRSGGSTYSADSVKGRFTISRDNAKNTVYLQMNSLKPEDTAVYYCAADGLDYALGFRGDYWGQGTLVTVSS
B3: 01G05R2LS His-tagged VHH (VHH)
VHH: QVQLVESGGGLVQAGDSLALSCAGSGDTFSNYAMGWFRQAPGKEREFVADISWYSANIGYADSVKGRFTISRDNAKNMVTLRMNSLKPEDTAVYYCAADRNHWPVKGDYWGQGTQVTVSS
B4: 01G07R3 His-tagged VHH (VHH)
VHH: QVQLVESGGGLVQAGDSLRLSCAASGRTLSFDTYAMGWFRQAPGKEREFVASIDWSGGTTYYADSVKGRFTVTRDNAKNTVTLRMNSLKPADTAVYYCAAAQYYRSGTSFPANYWGQGTLVTVSS
B5: 01H08R3 His-tagged VHH (VHH)
VHH: QVQLVESGGGSVQTGGSLRLSCTASGRTFSNYGMGWFRQAPGKEREFVAGITRSGRTTYYYYADAVKGRFTIPRDNADNTIYLQMDSMKPDDTAVYYCAARQGENNYDPRSGSAYNYWGPGTQVTVSS
B6: 01A09R3L His-tagged VHH (VHH)
VHH: EVQLVESGGGVVQAEDSLRLSCAASGLSFSLSRMGWFRQAPGKEREFVATIEWSGRSTYKYYDDSVKGRFAVSGDNTKNTMNLQMKGLNLEDTGVYYCAANPNNYGDPRTPGAYQYWGQGTQVTVSS
B7: 02B12R3 His-tagged VHH (VHH)
VHH: QVQLVESGGGWVQTGGSLRLSCAASGRTVSSYYMGWFRQTPGKEREFVAAISWVGSSTYKYYTDSAKGRFTISRDNAKNTVYLQMNSLKPEDTAVYYCAARPRVGDPRSRYDDDNWGQGTQVTVSS
B8: 01H10R2 His-tagged VHH (VHH)
VHH: QVQLVESGGGLVQPGGSLRLSCAASGRTSSISTMGWFRQAPGKEREFVTAIRWSGSSSYKYYADSVKGRFTISRDNARNTVYLQMNSLKPEDTAVYYCAAQMSLWRDPREIDYDYWGQGTLVTVSS
B9: 01H02R3LS His-tagged VHH (VHH)
VHH: QVQLVESGGGLVQPGGSLRLSCAASGSIFSASVMGWYRQGPGKQREFVARISPGGVTHYADSVKGRFTISKDNAKNTVTLQMNSLKPEDTAVYYCNADRFGFEVYWGQGTLVTVSS
B10: 02C10R3 His-tagged VHH (VHH)
VHH: EVQLVESGGGLVQPGGSLRLSCAASGFTFSSFTMTWFRQAPGKGLGWVSRISSDGTGTNYADSVKGRFTISRDNAKNTLYLRMNSLKPEDTAVYYCAIADDSSTRGQGTLVTVSS

Target: T1, recombinant human pIgR (hpIgR) (human, UniProt P01833 19-638, limits assumed)
T1 construct: probably the ECD
T1 sequence (P01833 19-638 limits assumed): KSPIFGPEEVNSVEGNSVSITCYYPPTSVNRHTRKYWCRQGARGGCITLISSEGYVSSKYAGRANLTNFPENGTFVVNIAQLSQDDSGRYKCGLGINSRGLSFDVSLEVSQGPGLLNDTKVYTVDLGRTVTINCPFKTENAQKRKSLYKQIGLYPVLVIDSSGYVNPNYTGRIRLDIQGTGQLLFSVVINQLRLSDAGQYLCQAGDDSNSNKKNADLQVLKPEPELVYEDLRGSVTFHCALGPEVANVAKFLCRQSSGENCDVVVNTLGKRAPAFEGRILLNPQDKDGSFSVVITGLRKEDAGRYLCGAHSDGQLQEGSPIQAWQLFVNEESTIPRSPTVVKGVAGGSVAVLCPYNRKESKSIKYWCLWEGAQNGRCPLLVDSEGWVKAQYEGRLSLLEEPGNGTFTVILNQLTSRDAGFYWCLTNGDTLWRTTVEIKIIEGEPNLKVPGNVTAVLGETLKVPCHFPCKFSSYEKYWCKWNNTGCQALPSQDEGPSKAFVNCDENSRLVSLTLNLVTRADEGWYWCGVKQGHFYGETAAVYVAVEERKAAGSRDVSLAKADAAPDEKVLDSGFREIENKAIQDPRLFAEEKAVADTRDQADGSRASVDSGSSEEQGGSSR
Test: ELISA, periplasmic VHH, BSA subtracted
Summary of the method: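 His-tagged VHH in periplasmic extracts (osmotic shock, non-suppressor E. coli) were tested by ELISA for binding to pIgR. Bound nanobody was detected with polyclonal anti-alpaca VHH antibody in the initial screen and anti-VHH antibody on retest. Signal on BSA, run in parallel, was subtracted from the pIgR signal.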

Binder | ELISA (OD)
B1 | 1.54 OD
B2 | 0.74 OD
B3 | 2.15 OD
B4 | 2.19 OD
B5 | 1.11 OD
B6 | 1.98 OD
B7 | 2.38 OD
B8 | 1.83 OD
B9 | 1.97 OD
B10 | 2.05 OD

Reference: US20220112276A1 (Janssen / Centocor, published 2022)
